Laboratory results reported in publication PMC7921410, “Structure of mammalian Mediator complex reveals Tail module architecture and interaction with a conserved core” (Nature Communications, 2021).

T1: MED15 (mouse (Mus musculus; endogenous in CH12), UniProt Q924H2 1-789)
T1 construct: MED15, Mus musculus, endogenous lower Tail subunit of Mediator; only the C-terminal portion (from residue 620) is seen in the map; source: endogenous, CH12 mouse B lymphoma nuclear extract; immunopurified as part of Mediator (FLAG M2 agarose, FLAG peptide elution)
T1 sequence (looked up): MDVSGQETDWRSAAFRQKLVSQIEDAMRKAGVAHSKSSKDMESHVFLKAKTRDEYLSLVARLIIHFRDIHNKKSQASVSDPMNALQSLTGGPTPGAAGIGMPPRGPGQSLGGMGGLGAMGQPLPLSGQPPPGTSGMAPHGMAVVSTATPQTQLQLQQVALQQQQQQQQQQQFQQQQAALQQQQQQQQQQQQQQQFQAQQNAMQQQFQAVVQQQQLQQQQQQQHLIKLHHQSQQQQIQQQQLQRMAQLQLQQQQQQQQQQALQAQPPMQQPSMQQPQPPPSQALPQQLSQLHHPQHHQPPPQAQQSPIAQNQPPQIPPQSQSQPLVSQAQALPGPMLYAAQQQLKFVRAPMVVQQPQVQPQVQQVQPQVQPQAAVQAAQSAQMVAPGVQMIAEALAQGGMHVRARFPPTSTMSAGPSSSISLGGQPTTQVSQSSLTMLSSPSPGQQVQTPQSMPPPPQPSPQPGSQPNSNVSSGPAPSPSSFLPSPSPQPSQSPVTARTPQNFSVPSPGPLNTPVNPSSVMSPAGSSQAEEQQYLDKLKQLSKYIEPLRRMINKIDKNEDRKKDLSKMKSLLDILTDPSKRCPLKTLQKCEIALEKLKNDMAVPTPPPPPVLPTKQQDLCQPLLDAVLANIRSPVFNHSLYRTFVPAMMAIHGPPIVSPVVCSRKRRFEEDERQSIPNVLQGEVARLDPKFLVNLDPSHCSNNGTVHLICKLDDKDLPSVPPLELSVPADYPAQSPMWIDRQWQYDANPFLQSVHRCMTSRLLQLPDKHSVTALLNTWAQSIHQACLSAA

T2: MED16 (mouse (Mus musculus; endogenous in CH12), UniProt Q6PGF3 1-828)
T2 construct: MED16, Mus musculus, endogenous lower Tail subunit of Mediator; source: endogenous, CH12 mouse B lymphoma nuclear extract; immunopurified as part of Mediator (FLAG M2 agarose, FLAG peptide elution)
T2 sequence (looked up): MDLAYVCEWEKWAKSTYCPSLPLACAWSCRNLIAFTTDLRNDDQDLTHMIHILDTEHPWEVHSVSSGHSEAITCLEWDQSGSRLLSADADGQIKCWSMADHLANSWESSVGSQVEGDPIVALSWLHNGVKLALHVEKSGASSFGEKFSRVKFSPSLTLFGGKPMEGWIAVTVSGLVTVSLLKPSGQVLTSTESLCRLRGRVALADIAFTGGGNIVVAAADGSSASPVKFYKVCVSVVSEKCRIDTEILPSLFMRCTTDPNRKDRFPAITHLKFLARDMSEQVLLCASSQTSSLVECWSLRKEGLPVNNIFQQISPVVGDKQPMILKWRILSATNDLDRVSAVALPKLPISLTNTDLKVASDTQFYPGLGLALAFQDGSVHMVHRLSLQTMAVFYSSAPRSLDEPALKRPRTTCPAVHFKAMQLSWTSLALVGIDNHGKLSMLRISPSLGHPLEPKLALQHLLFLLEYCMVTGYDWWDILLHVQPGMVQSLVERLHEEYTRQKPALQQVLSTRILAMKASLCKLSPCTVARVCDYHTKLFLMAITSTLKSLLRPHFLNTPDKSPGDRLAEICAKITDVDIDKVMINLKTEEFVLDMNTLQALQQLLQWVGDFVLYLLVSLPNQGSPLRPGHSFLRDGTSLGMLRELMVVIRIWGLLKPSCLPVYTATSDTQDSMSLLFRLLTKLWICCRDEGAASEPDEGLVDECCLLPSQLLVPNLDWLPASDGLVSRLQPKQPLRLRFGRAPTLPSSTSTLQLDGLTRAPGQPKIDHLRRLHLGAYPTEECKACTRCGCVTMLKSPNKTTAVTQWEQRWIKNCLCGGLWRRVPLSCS

T3: MED17 (mouse (Mus musculus; endogenous in CH12), UniProt Q8VCD5 1-649)
T3 construct: MED17, Mus musculus, endogenous Head module scaffold subunit of Mediator; source: endogenous, CH12 mouse B lymphoma nuclear extract; immunopurified as part of Mediator (FLAG M2 agarose, FLAG peptide elution)
T3 sequence (looked up): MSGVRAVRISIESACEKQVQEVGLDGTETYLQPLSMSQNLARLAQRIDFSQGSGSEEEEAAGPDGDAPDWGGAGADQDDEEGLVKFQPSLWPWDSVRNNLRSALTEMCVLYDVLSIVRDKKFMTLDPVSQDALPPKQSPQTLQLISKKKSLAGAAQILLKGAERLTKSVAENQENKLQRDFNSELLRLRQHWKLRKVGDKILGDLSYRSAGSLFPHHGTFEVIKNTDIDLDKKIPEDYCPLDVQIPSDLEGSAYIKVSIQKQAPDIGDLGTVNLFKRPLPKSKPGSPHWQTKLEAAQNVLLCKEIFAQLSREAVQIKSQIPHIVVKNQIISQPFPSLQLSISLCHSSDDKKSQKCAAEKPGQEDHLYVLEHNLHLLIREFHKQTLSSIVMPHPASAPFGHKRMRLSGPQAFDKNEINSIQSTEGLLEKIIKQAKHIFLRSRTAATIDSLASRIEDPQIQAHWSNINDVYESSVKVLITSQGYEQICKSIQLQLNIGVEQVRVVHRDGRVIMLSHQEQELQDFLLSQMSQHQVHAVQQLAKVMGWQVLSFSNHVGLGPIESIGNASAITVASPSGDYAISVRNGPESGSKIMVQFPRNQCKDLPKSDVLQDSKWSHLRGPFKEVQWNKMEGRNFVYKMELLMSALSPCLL

B1: MED24 (natural protein, mouse (Mus musculus; endogenous in CH12), UniProt Q99K74 1-987, looked up)
chain: MKVVNLKQAILQAWKERWSDYQWAINMKKFFPKGATWDILNLAEALLEQAMIGPSPNPLILSYLKYAISSQMVSCSSVLTAISKFDDFSRDLCVQALLDIMDMFCDRLSCHGKAEECIGLCRALLSALHWLLRCTAASAERLQEGLEAGTPAPGEKQLALCLQCLEKTLSSTKNRALLHIAKLEEASSWTAIEHSLLKLGEILANLSNPQLRSQAERCGTLIRSIPSMLSVHSEQLHKTGFPTIHALILLEGTMNLTGEMQPLVEQLMMVKRMQHIPTPLFVLEIWKACFVGLIESPEGTQELKWTAFTYLKIPQVLVKLKKYFHGEKDFTEDVNCAFEFLLKLTPLLDKADQRCNCDCTNFLLQECNKQGLLSEVNFASLVGKRTADRDPQLKSSENANIQPNPGLILRAEPTVTNILKTMDADHSKSPEGLLGVLGHMLSGKSLDLLLAAAAATGKLKSFARKFINLNEFTTHGSGESTKTASVRALLFDISFLMLCHVAQTYGSEVILSESSSGEEVPFFETWMQTCMPEEGKILNPDHPCFRPDSTKVESLVALLNNSSEMKLVQMKWHEACLSISAAILEILNAWENGVLAFESIQKITDNIKGKVCSLAVCAVAWLVAHVRMLGLDEREKSLQMIRQLAGPLYSENTLQFYNERVVIMNSILEHMCADVLQQTATQIKFPSTGVDTMPYWNLLPPKRPIKEVLTDIFAKVLEKGWVDSRSIHILDTLLHMGGVYWFCNNLIKELLKETRKEHTLRAVQLLYSIFCLDMQQVTLVLLGHILPGLLTDSSKWHSLMDPPGTALAKLAVWCALSSYSSHKGQASSRQKKRHREDIEDYVSLFPVEDMQPSKLMRLLSSSDDDANILSSPTDRSMNSSLSASQLHTVNMRDPLNRVLANLFLLISSILGSRTAGPHTQFVQWFMEECVGCLEQDSRGSILQFMPFTTVSELVKVSAMSSPKVVLAITDLSLPLGRQVAAKAIAAL
notes: MED24, Mus musculus, endogenous lower Tail subunit of Mediator; source: endogenous, CH12 mouse B lymphoma nuclear extract; immunopurified as part of Mediator (FLAG M2 agarose, FLAG peptide elution)
B2: MED29 (natural protein, mouse (Mus musculus; endogenous in CH12), UniProt Q9DB91 1-199, looked up)
chain: MAAPQPQAAAVSSASGVSGPGSAGGPGPQQQPQPTQLVGSAQSGLLQQQQQDFDPVQRYKMLIPQLKESLQTLMKVAAQNLIQNTNIDNGQKSSDAPLQRFDKCLEEFYALCDQLELCLRLAHECLSQSCDSAKHSPTLVPTATKPDAVQPDSLPYPQYLAVIKAQITCAKDIHTALLDCANKVTGKTTAPSTGPGGSL
notes: MED29, Mus musculus, endogenous upper Tail subunit of Mediator; source: endogenous, CH12 mouse B lymphoma nuclear extract; immunopurified as part of Mediator (FLAG M2 agarose, FLAG peptide elution)
B3: MED4 (natural protein, mouse (Mus musculus; endogenous in CH12), UniProt Q9CQA5 1-270, looked up)
chain: MAASSSGEKEKERMGGVSGMAGLGSTRERLLSALEDLEVLSRELIEMLAISRNQKLLQLEEENQVLELLIHRDGDFQELMKLALNQGKVHHEMQALEKEVEKRDSDIQQLQKQLKEAEQILATAVYQAKEKLKSIEKARKGAISSEEIIKYAHRISASNAVCAPLTWVPGDPRRPYPTDLEMRSGLLGQMNNPSTSGVNGHLPGDALAAGRLPDVLAPQYPWQSNDMSVNMLPPNHSSDFLLEPPGHNKENEDDVEVMSTDSSSSSSDSD
notes: MED4, Mus musculus, endogenous Middle module subunit of Mediator; source: endogenous, CH12 mouse B lymphoma nuclear extract; immunopurified as part of Mediator (FLAG M2 agarose, FLAG peptide elution)
B4: MED27 (natural protein, mouse (Mus musculus; endogenous in CH12), UniProt Q9DB40 1-311, looked up)
chain: MADVLSVGVNLEAFSQAISAIQALRSSVSRVFDCLKDGMRNKETLEGREKAFIANFQDNLHSVNRDLNELERLSNLVGKPSENHPLHNSGLLSLDPVQDKTPLYSQLLQAYKWSNKLQYHAGLASGLLNQQSLKRSANQMGVSAKRRPKAQPTTLVLPPQYVDDVISRIDRMFPEMSIHLSRPNGTSAMLLVTLGKVLKVIVVMRSLFIDRTIVKGYNESVYTEDGKLDIWSKSSYQVFQKVTDHATTALLHYQLPQMPDVVVRSFMTWLRSYIKLFQAPCQRCGKFLQDGLPPTWRDFRTLEAFHDTCRQ
notes: MED27, Mus musculus, endogenous upper Tail subunit of Mediator; source: endogenous, CH12 mouse B lymphoma nuclear extract; immunopurified as part of Mediator (FLAG M2 agarose, FLAG peptide elution)

What was measured:
Experiment in all cases: cryo-EM structure; endogenous mouse Mediator immunopurified from CH12 nuclear extract through 3×FLAG-MED19 or 3×FLAG-MED25; eluted in 50 mM HEPES pH 7.9, 100 mM KCl, 5% glycerol, 1 mM EDTA, 0.005% NP-40; map at 4.0 Å overall, focused refinement of the MED1 and knob/hook ends (6-10 Å)
Details in all cases: both partners purified
[1] = biological target: T4, MED1 (mouse (Mus musculus; endogenous in CH12), UniProt Q925J9 1-1575)
T4 construct: MED1, Mus musculus, endogenous Middle module subunit of Mediator; only a partial model of the folded N-terminal portion was built; Partial model only; this part of the map is at about 6-8 Å; also called Mediator subunit MED1; source: endogenous, CH12 mouse B lymphoma nuclear extract; immunopurified as part of Mediator (FLAG M2 agarose, FLAG peptide elution)

[2] = biological target: B4
[3] = biological target: T1, MED15
[4] = biological target: T2, MED16
[5] = biological target: T3, MED17

T4 sequence (Q925J9 whole entry): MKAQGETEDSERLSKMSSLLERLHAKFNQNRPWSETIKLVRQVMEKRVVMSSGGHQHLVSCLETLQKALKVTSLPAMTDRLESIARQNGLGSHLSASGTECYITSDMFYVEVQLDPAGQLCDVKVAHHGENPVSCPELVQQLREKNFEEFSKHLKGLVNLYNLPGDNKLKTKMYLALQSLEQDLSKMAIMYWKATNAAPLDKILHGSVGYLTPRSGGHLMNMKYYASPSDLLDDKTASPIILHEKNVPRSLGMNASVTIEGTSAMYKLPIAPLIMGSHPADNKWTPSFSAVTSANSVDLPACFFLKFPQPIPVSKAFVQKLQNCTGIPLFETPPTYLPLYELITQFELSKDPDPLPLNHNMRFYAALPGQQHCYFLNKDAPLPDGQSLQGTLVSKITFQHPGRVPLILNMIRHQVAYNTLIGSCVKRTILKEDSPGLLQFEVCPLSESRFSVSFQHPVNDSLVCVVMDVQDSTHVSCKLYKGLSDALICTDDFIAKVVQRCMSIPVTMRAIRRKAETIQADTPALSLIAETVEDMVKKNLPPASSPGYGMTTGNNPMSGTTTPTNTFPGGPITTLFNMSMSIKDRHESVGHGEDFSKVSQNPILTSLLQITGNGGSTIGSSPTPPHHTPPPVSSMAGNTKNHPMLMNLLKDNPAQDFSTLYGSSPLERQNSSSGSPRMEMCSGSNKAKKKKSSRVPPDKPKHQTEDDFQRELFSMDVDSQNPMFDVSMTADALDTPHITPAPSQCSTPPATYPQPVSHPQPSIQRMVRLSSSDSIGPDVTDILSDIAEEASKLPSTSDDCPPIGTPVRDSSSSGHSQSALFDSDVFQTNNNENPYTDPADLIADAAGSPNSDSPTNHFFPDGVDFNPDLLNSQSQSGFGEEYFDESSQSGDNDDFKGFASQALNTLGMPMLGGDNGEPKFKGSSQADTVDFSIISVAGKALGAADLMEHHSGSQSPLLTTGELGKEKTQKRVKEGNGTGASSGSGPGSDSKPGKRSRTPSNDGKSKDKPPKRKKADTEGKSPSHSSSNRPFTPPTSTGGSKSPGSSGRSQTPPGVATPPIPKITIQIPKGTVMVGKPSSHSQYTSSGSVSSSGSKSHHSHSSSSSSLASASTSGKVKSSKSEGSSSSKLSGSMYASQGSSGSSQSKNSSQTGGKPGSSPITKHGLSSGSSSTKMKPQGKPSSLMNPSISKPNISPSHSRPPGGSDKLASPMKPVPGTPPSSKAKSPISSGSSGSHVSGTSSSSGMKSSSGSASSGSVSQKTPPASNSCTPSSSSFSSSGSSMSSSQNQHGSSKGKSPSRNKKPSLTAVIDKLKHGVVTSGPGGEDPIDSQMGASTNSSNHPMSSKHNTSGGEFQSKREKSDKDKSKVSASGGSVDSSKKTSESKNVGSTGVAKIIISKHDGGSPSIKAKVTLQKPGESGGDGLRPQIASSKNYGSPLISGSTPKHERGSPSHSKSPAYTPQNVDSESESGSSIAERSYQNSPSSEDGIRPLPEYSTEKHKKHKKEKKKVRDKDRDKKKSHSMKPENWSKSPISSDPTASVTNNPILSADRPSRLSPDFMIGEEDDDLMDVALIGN

Binder | binding result [1] | binding result [2] | binding result [3] | binding result [4] | binding result [5]
B1 | binds |  |  |  | 
B2 |  | binds | binds | binds | 
B3 | binds |  |  |  | 
B4 |  |  | binds | binds | binds
